From patent publication US20180118821A1 (Eli Lilly, published 2018)
Numbering of substitutions follows the chain as printed. Like-named read-outs stand apart in the source and are kept apart here.

Columns and labels:
[1] = biological target: Cynomolgus monkey IL-33 (cynomolgus monkey); assay: cell-based or functional assay
Human IL-33 [2] = biological target: T1, Human IL-33 (human, UniProt O95760 95-270, limits assumed); assay: cell-based or functional assay
T1 sequence: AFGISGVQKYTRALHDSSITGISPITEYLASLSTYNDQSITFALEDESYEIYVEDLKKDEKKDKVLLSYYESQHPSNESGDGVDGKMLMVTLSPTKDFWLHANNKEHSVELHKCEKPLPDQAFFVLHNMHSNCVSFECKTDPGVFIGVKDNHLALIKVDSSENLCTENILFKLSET

Human IL-33 [3] = biological target: T1, Human IL-33; assay: cell-based or functional assay; remark: listed apart in the source
Human IL-33 [4] = biological target: T1, Human IL-33; assay: cell-based or functional assay; remark: listed apart in the source
Cynomolgus monkey IL-33 [5] = biological target: T2, Cynomolgus monkey IL-33 (cynomolgus monkey, UniProt A0A2K5W3I1 95-269); assay: cell-based or functional assay
T2 sequence: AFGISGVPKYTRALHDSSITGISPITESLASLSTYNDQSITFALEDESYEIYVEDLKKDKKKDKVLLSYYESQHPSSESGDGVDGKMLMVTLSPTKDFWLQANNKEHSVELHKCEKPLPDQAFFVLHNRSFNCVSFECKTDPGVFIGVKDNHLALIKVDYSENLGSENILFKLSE

IL-1α = biological target: T3, IL-1α (human, UniProt P01583 113-271); assay: SPR (BIAcore 2000), antibody captured on Protein A, analyte at 500 nM
T3 sequence (looked up): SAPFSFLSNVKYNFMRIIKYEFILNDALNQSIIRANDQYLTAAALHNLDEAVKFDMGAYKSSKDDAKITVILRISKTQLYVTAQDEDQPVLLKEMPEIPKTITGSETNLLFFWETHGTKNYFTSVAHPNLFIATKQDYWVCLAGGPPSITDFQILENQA
Protocol: (§1) Protein A (Calbiochem) is coupled via free amine groups to carboxyl groups on flow cells 1 and 2 of a CM5 biosensor chip (GE Healthcare) using a mixture of N-ethyl-N-(dimethylaminopropyl)-carbodiimide (EDC) and N-hydroxysuccinimide (NHS). To capture positive control antibodies, Rabbit anti-Goat IgG (Fc specific) is coupled to flow cell 3, and Rabbit anti-Rat IgG (Fc specific) is coupled to flow cell 4 (both from Jackson ImmunoResearch). Flow cells are monitored with a flow rate of 30 μL/minute using a buffer containing 0.01 M HEPES, pH 7.4, 150 mM NaCl, 0.005% surfactant P20. Antibody 43 is captured on flow cell 2 to yield a total of 300 to 800 response units (RU; results reflect flow cell 2 minus flow cell 1). Binding tests are followed by a regeneration step using glycine-HCl (pH 1.5) between each cycle. Flow cell 1 is used as a control to monitor non-specific binding of analytes tested. The exemplified antibody is tested with all analytes of the human IL-1 protein family as listed at 500 nM concentration.

IL-1β = IL-1β (human, UniProt P01584 117-269); assay: as above
Protocol: as §1

IL-1RA = IL-1RA (human, UniProt P18510 26-177); assay: as above
Sequence of IL-1RA (P18510 26-177 limits assumed): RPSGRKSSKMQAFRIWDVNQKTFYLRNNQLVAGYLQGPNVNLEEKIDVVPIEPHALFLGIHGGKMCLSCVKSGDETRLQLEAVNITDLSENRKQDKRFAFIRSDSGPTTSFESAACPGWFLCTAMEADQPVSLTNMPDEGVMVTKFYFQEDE
Protocol: as §1

IL-18 = biological target: T4, IL-18 (human, UniProt Q14116 37-193); assay: as above
T4 sequence (looked up): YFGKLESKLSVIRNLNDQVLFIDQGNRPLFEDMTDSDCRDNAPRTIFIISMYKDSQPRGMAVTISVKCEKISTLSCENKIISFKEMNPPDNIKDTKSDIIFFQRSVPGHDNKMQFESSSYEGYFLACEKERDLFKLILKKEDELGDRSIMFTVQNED
Protocol: as §1

IL-36α = biological target: T5, IL-36α (human, UniProt Q9UHA7 6-158); assay: as above
T5 sequence (looked up): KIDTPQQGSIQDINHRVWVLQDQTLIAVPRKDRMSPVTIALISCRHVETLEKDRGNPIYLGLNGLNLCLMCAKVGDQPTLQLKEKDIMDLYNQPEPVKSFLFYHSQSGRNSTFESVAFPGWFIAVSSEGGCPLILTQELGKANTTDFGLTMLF
Protocol: as §1

IL-36β = biological target: T6, IL-36β (human, UniProt Q9NZH7-2 5-157); assay: as above
T6 sequence (looked up): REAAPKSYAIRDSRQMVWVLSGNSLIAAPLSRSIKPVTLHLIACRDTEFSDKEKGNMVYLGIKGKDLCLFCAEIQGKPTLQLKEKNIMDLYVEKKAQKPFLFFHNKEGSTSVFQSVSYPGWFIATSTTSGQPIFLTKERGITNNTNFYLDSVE
Protocol: as §1

IL-36γ = biological target: T7, IL-36γ (human, UniProt Q9NZH8 18-169); assay: as above
T7 sequence (looked up): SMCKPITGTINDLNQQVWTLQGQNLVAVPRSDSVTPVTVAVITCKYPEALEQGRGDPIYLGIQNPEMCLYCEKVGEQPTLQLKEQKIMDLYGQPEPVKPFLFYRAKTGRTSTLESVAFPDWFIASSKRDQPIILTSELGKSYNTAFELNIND
Protocol: as §1

IL-36RA = biological target: T8, IL-36RA (human, UniProt Q9UBH0 2-155); assay: as above
T8 sequence (looked up): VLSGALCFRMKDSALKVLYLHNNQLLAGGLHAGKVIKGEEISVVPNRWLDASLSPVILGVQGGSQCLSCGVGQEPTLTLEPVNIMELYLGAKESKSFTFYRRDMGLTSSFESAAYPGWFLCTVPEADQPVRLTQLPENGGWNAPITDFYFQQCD
Protocol: as §1

IL-37 = biological target: T9, IL-37 (human, UniProt Q9NZH6 46-218, limits assumed); assay: as above
T9 sequence (looked up): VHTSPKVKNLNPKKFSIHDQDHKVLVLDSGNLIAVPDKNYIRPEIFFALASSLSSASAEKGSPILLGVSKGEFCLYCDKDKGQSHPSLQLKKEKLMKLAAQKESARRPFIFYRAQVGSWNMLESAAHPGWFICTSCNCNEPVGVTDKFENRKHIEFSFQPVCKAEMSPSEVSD
Protocol: as §1

Human IL-33 [6] = biological target: T1, Human IL-33; assay: SPR (Biacore T100/T200), antibody captured on Protein A, 37° C., 1:1 model
Protocol: (§2) A CM4 chip containing immobilized Protein A (generated using standard NHS-EDC amine coupling) on all four flow cells (Fc) is used to employ a capture method. Antibody samples are prepared at 10 μg/mL in running buffer. Mouse, rat, and rabbit IL-33 samples are prepared at final concentrations of 1000, 500, 250, 125, 63, 31, 16, and 0 nM in running buffer. Human and Cynomologus IL-33 samples are prepared at final concentrations of 250, 125, 63, 31, 16, 8, 4, 2, 1, and 0 nM in running buffer. Each analysis cycle involves the steps of (1) capturing antibody samples on separate flow cells (Fc2, Fc3, or Fc4); (2) injecting 200 μL of IL-33 over all flow cells at 100 μL/min; (3) returning to buffer flow for a minimum of 10 min at 100 μL/min to monitor complex dissociation; (4) regenerating the chip surface with two sequential injections of 7.5 microliters of glycine, pH1.5; and (5) equilibrating the chip surface for 5 minutes prior to repeating the cycle. Each IL-33 concentration is injected in duplicate. Data is processed using standard double-referencing and fit to a 1:1 binding model using Biacore T100 Evaluation software, version 2.0.1, to determine the association rate (on-rate, kₒₙ, M⁻¹s⁻¹ units) and the dissociation rate (off-rate, koff, s⁻¹ units). The equilibrium dissociation constant (KD) is calculated from the relationship KD=koff/kₒₙ, and is in molar units. Three experimental replicates (n) are conducted for the binding of Antibody 43 to human and cynomolgus monkey IL-33.

Cynomolgus monkey IL-33 [7] = biological target: T2, Cynomolgus monkey IL-33; assay: as above
Protocol: as §2

Cynomolgus monkey IL-33 [8] = biological target: T2, Cynomolgus monkey IL-33; assay: SPR affinities
Protocol: as §2, with “Three experimental replicates (n) are conducted for the binding of Antibody 43 to human and cynomolgus monkey IL-33.” left out

Human IL-33 [9] = biological target: T1, Human IL-33; assay: SPR (Biacore), antibody captured on Protein A, 37° C., 1:1 model
Protocol: as §2

Cynomolgus monkey IL-33 [10] = biological target: T2, Cynomolgus monkey IL-33; assay: as above
Protocol: as §2

Human monomeric ST2 (IL1RL1) (from UniProt Q01638 19-328) (receptor)
IC50 in the in vitro NFκB-GEC-luciferase activity assay [1]: 0.175 nM | IC50 in the in vitro NFκB-GEC-luciferase activity assay (Human IL-33 [2]): 0.426 nM | IC50 of inhibition of IL-33-induced GM-CSF secretion from human mast cells (Human IL-33 [2]): 7.6 nM

B1: Antibody 43 (antibody, human IgG4 S228P, kappa, F234A L235A, V domains shown)
VH: EVQLVETGGGLIQPGGSLRLSCAASGFTFSFYAMSWVRQAPGKGLEWVSAISGSGGSTYYADSVKGRFTISRDNSKNTLYLQMNSLRAEDTAVYYCARTIHGIRAAYDAFIIWGQGTLVTVSS
VL: EIVLTQSPGTLSLSPGERATLSCRASQSVGINLSWYQQKPGQAPRLLIYGASHRLTGIPDRFSGSGSGTDFTLTISRLEPEDFAVYYCHQYSQPPPFTFGGGTKVEIKR
notes: Derived from Antibody 54 by engineering to reduce potential immunogenicity; expressed in CHO cells; also called Ab 43; Exemplified Antibody
IC50 of inhibition of IL-33-induced GM-CSF secretion from human mast cells (Human IL-33 [3]): 0.3 nM | IC50 in the in vitro NFκB-GEC-luciferase activity assay (Human IL-33 [4]): 0.33 nM | IC50 in the in vitro NFκB-GEC-luciferase activity assay (Cynomolgus monkey IL-33 [5]): 1.92 nM | binding result (IL-1α): no binding (tested: 500 nM) | binding result (IL-1β): no binding (tested: 500 nM) | binding result (IL-1RA): no binding (tested: 500 nM) | binding result (IL-18): no binding (tested: 500 nM) | binding result (IL-36α): no binding (tested: 500 nM) | binding result (IL-36β): no binding (tested: 500 nM) | binding result (IL-36γ): no binding (tested: 500 nM) | binding result (IL-36RA): no binding (tested: 500 nM) | binding result (IL-37): no binding (tested: 500 nM) | Kd (Human IL-33 [6]): 0.049 nM | koff (Human IL-33 [6]): 7.2e-05 s⁻¹ | kon (Human IL-33 [6]): 1.5e+06 M⁻¹ s⁻¹ | Kd (Cynomolgus monkey IL-33 [7]): 0.338 nM | koff (Cynomolgus monkey IL-33 [7]): 0.00051 s⁻¹ | kon (Cynomolgus monkey IL-33 [7]): 1.5e+06 M⁻¹ s⁻¹

B2: Antibody 75 (antibody, human IgG4 S228P, kappa, F234A L235A, V domains shown)
VH: B1 VH with F31S, I100L
VL: B1 VL with L55A, P94S
notes: Human IgG4 antibody; 3-53 heavy chain framework and A27 light chain framework with the CDRs of Antibody 23; also called Ab 75
fold difference in species cross-reactivity (affinity to cynomolgus IL-33 against human IL-33) (Cynomolgus monkey IL-33 [8]): ~850 fold | IC50 in the in vitro NFκB-GEC-luciferase activity assay (Human IL-33 [4]): 0.286 nM | Kd (Human IL-33 [9]): 0.0145 nM | koff (Human IL-33 [9]): 2.6e-05 s⁻¹ | kon (Human IL-33 [9]): 1.7e+06 M⁻¹ s⁻¹ | Kd (Cynomolgus monkey IL-33 [10]): 12.4 nM | koff (Cynomolgus monkey IL-33 [10]): 0.019 s⁻¹ | kon (Cynomolgus monkey IL-33 [10]): 1.7e+06 M⁻¹ s⁻¹
